B1: bispecific endoglinxCD28 antibody in the IgGsc format, BiCo variant Lc-L (bispecific antibody)
heavy: QVQLVQSGAEVKKPGASVKVSCKASGYTFTSYWMHWVRQAPGQGLEWIGNIYPGSGSTFYDEKFKGRATLTVDTSISTAYMELSRLRSDDTAVYYCTRRNYVTGFDYWGQGTTVTVSSASTKGPSVFPLAPSSKSTSGGTAALGCLVKDYFPEPVTVSWNSGALTSGVHTFPAVLQSSGLYSLSSVVTVPSSSLGTQTYICNVNHKPSNTKVDKKVEPKSCDKTHTCPPCPAPPVAGPSVFLFPPKPKDTLMISRTPEVTCVVVGVSHEDPEVKFNWYVDGVEVHNAKTKPREEQYNSTYRVVSVLTVLHQDWLNGKEYKCKVSNKQLPSPIEKTISKAKGQPREPQVYTLPPSRDELTKNQVSLTCLVKGFYPSDIAVEWESNGQPENNYKTTPPVLDSDGSFFLYSKLTVDKSRWQQGNVFSCSVMHEALHNHYTQKSLSLSPGK
light: DIQLTQSPSFLSASVGDRVTITCKSSQSVLYSSNQKNYLAWYQQKPGKAPKLLIYWASTRESGVPSRFSGSGSGTEFTLTISSLQPEDFATYYCHQYLSSYTFGQGTKLEIKRTVAAPSVFIFPPSDEQLKSGTASVVCLLNNFYPREAKVQWKVDNALQSGNSQESVTEQDSKDSTYSLSSTLTLSKADYEKHKVYACEVTHQGLSSPVTKSFNRGECASQVQLVESGGGVVQPGRSLRLSCAASGFSLSDYGVHWVRQAPGKGLEWLGVIWAGGGTNYNSALMSRKTISKDNSKNTVYLQMNSLRAEDTAVYYCARDKGYSYYYSMDYWGQGTTVTVSSGGGGSGGGGSGGGGSDIQMTQSPSTLSASVGDRVTIICRASESVEYYVTSLMQWYQQKPGKAPKLLIFAASNVESGVPSRFSGSGSGTEFTLTISSLQPDDFATYYCQQSRKVPYTFGQGTKLEIKR
notes: Humanized endoglin IgG, FcKO heavy chain, with the CD28 scFv (9.3-8, Vh-Vl) fused to the C-terminus of the kappa light chain without the long linker
B2: bispecific endoglinxCD28 antibody in the IgGsc format, BiCo variant Lc+L (bispecific antibody)
heavy: B1 heavy
light: DIQLTQSPSFLSASVGDRVTITCKSSQSVLYSSNQKNYLAWYQQKPGKAPKLLIYWASTRESGVPSRFSGSGSGTEFTLTISSLQPEDFATYYCHQYLSSYTFGQGTKLEIKRTVAAPSVFIFPPSDEQLKSGTASVVCLLNNFYPREAKVQWKVDNALQSGNSQESVTEQDSKDSTYSLSSTLTLSKADYEKHKVYACEVTHQGLSSPVTKSFNRGECASGGGGSGGGGSGGGGSQVQLVESGGGVVQPGRSLRLSCAASGFSLSDYGVHWVRQAPGKGLEWLGVIWAGGGTNYNSALMSRKTISKDNSKNTVYLQMNSLRAEDTAVYYCARDKGYSYYYSMDYWGQGTTVTVSSGGGGSGGGGSGGGGSDIQMTQSPSTLSASVGDRVTIICRASESVEYYVTSLMQWYQQKPGKAPKLLIFAASNVESGVPSRFSGSGSGTEFTLTISSLQPDDFATYYCQQSRKVPYTFGQGTKLEIKR
notes: Humanized endoglin IgG, FcKO heavy chain, with the CD28 scFv (9.3-8, Vh-Vl) fused to the C-terminus of the kappa light chain through a (GGGGS)3 linker; also called BiCo-1; Bico1
B3: bispecific endoglinxCD28 antibody in the IgGsc format, BiCo variant Hc-L (bispecific antibody)
heavy: QVQLVQSGAEVKKPGASVKVSCKASGYTFTSYWMHWVRQAPGQGLEWIGNIYPGSGSTFYDEKFKGRATLTVDTSISTAYMELSRLRSDDTAVYYCTRRNYVTGFDYWGQGTTVTVSSASTKGPSVFPLAPSSKSTSGGTAALGCLVKDYFPEPVTVSWNSGALTSGVHTFPAVLQSSGLYSLSSVVTVPSSSLGTQTYICNVNHKPSNTKVDKKVEPKSCDKTHTCPPCPAPPVAGPSVFLFPPKPKDTLMISRTPEVTCVVVGVSHEDPEVKFNWYVDGVEVHNAKTKPREEQYNSTYRVVSVLTVLHQDWLNGKEYKCKVSNKQLPSPIEKTISKAKGQPREPQVYTLPPSRDELTKNQVSLTCLVKGFYPSDIAVEWESNGQPENNYKTTPPVLDSDGSFFLYSKLTVDKSRWQQGNVFSCSVMHEALHNHYTQKSLSLSPGKASQVQLVESGGGVVQPGRSLRLSCAASGFSLSDYGVHWVRQAPGKGLEWLGVIWAGGGTNYNSALMSRKTISKDNSKNTVYLQMNSLRAEDTAVYYCARDKGYSYYYSMDYWGQGTTVTVSSGGGGSGGGGSGGGGSDIQMTQSPSTLSASVGDRVTIICRASESVEYYVTSLMQWYQQKPGKAPKLLIFAASNVESGVPSRFSGSGSGTEFTLTISSLQPDDFATYYCQQSRKVPYTFGQGTKLEIKR
light: DIQLTQSPSFLSASVGDRVTITCKSSQSVLYSSNQKNYLAWYQQKPGKAPKLLIYWASTRESGVPSRFSGSGSGTEFTLTISSLQPEDFATYYCHQYLSSYTFGQGTKLEIKRTVAAPSVFIFPPSDEQLKSGTASVVCLLNNFYPREAKVQWKVDNALQSGNSQESVTEQDSKDSTYSLSSTLTLSKADYEKHKVYACEVTHQGLSSPVTKSFNRGEC
notes: Humanized endoglin IgG (K-ro22-2 / K-ro22-6), FcKO, with the CD28 scFv (9.3-8, Vh-Vl) fused to the C-terminus of the heavy chain without the long linker

target: T1, CD28 expressed on human CD4+ and CD8+ T cells (human, UniProt P10747 19-220); experiment: flow cytometry after incubation of PBMC with the constructs
T1 construct: whole, on cells; also called T-cell-specific surface glycoprotein CD28
Procedure: Binding of the variants to normal human T cells was determined after incubation of PBMC with the respective constructs and subsequent analysis by flow cytometry

binding result	Binder
binds	B1
binds	B2
binds	B3
